From article doi:10.1101/2020.11.05.369280 (bioRxiv, 2020) come the findings set out here.

What is called Kd is the concentration at which binding is half-saturated.

In the experiment the target is EIIA^Glc (UniProt P69783 2-169). Briefly: SPR + ELISA. On the technique in general: In an ELISA, binding on a coated surface is turned into a signal by an enzyme label.
EIIA^Glc, sequence (P69783 2-169): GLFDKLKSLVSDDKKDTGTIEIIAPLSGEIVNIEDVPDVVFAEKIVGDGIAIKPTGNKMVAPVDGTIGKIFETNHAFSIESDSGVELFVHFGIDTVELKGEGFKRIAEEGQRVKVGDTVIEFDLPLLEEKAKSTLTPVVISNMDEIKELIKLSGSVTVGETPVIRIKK

B1: EIIB^Glc (domain or fragment)
chain: EDATEDAKATGTSEMAPALVAAFGGKENITNLDACITRLRVSVADVSKVDQAGLKKLGAAGVVVAGSGVQAIFGTKSDNLKTEMDEYIRN
As to B1, the Kd is above 10 µM.
